This is an account of results in FireProtDB (doi:10.1016/j.jmb.2003.11.050).

For this series the following is noted: Bacillus caldolyticus; pH 7; 25 °C; GdnHCl; Fluorescence; sodium cacodylate 100 mM; reversible: yes; whole UniProt chain shown.

B1: Cold shock protein CspB wild type, P41016 (protein)
chain: MQRGKVKWFNNEKGYGFIEVEGGSDVFVHFTAIQGEGFKTLEEGQEVSFEIVQGNRGPQAANVVKL
As to B1, the denaturant m value came out at 1.53 kcal/mol/M, the “denaturant midpoint (higher = more stable)” value worked out at 2.36 M and the unfolding free energy is 3.63 kcal/mol.
